Source: doi:10.1101/2020.12.02.408153

Key:
Experiment in all cases: SPR
[1] = biological target: SARS-CoV-2 extended S1 subunit (SARS-CoV-2) (UniProt P0DTC2)
[2] = biological target: SARS-CoV-2 spike glycoprotein ectodomain with poly-histidine tag (SARS-CoV-2 | bacteriophage T4) (UniProt P0DTC2)
[3] = biological target: SARS-CoV-2 spike glycoprotein ectodomain with double Strep II tag (SARS-CoV-2 | bacteriophage T4) (UniProt P0DTC2)

human angiotensin converting enzyme 2, sequence (Q9BYF1 20-611): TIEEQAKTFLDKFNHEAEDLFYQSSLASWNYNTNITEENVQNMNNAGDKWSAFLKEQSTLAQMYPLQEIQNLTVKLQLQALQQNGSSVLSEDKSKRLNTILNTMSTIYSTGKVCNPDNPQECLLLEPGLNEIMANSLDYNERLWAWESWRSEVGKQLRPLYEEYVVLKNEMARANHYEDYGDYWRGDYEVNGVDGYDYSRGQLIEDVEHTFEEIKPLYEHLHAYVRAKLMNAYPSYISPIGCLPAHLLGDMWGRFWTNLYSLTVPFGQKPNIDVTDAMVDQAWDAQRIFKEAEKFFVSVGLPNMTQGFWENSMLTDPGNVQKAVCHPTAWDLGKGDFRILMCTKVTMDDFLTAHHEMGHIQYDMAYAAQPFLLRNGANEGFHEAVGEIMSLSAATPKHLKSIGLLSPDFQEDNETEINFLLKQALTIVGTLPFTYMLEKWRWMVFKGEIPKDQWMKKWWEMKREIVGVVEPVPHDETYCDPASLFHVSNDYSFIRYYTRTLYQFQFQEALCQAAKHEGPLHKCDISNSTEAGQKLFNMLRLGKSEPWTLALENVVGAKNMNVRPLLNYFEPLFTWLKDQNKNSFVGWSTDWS

| Substance | IC50 [1] [µM] | Kd [1] [µM] | Kd [2] [µM] | IC50 [3] [µM] | Kd [3] [µM] |
| --- | --- | --- | --- | --- | --- |
| LL-37 (peptide) | 0.17 | 0.2 | 0.42 | 0.74 | 0.41 |
| human angiotensin converting enzyme 2 (from UniProt Q9BYF1-1 20-611) (receptor) |  | 0.61 | 0.37 |  | 0.37 |
